Laboratory results from IntAct's records for PubMed 15047893.

B1: Serine/threonine-protein kinase TOUSLED (Arabidopsis thaliana (Mouse-ear cress)), Q39238 (parent)
chain: MSDDMVLHFSSNSSNQSDHSLPDKIAKLEARLTGKTPSSAKPPQQQQQQQQQVSLWSSASAAVKVVTSTPPGLSETSISDSDDENTGDFLIRANTKKRQKVQESNNFSVVDHVEPQEAAYDGRKNDAESKTGLDVSKKKQGRGRASSTGRGRGSKTNNDVTKSQFVVAPVSAASQLDASDQKDFRPDGQLRNGECSLQDEDLKSLRAKIAMLEEELRKSRQDSSEYHHLVRNLENEVKDLKDQEQQGKQKTTKVISDLLISVSKTERQEARTKVRNESLRLGSVGVLRTGTIIAETWEDGQMLKDLNAQLRQLLETKEAIERQRKLLKKRQNGDKNDGTDTESGAQEEDIIPDEVYKSRLTSIKREEEAVLRERERYTLEKGLLMREMKRIRDEDGSRFNHFPVLNSRYALLNLLGKGGFSEVYKAYDLVDHRYVACKLHGLNAQWSEEKKQSYIRHANRECEIHKSLVHHHIVRLWDKFHIDMHTFCTVLEYCSGKDLDAVLKATSNLPEKEARIIIVQIVQGLVYLNKKSQKIIHYDLKPGNVLFDEFGVAKVTDFGLSKIVEDNVGSQGMELTSQGAGTYWYLPPECFELNKTPMISSKVDVWSVGVLFYQMLFGKRPFGHDQSQERILREDTIIKAKKVEFPVTRPAISNEAKDLIRRCLTYNQEDRPDVLTMAQDPYLAYSKK
partner: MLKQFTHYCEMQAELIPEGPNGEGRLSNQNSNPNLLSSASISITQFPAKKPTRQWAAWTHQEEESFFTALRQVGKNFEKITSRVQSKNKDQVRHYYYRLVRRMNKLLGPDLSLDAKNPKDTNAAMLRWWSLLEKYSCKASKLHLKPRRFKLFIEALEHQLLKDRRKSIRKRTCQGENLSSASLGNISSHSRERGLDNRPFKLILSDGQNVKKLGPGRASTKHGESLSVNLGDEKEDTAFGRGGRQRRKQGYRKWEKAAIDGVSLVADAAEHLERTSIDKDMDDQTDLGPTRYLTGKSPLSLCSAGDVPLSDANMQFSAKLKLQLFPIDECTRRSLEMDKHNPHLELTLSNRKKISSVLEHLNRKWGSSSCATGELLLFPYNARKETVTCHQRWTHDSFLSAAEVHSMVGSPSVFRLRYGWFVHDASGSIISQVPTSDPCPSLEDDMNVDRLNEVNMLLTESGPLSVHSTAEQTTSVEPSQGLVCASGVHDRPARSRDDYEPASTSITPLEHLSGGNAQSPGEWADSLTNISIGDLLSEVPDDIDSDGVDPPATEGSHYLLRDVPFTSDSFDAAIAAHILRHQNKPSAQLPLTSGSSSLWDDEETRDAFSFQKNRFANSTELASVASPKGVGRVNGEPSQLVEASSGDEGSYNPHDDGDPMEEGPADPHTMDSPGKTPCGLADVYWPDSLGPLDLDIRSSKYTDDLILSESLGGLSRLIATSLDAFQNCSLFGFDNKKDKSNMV
B2: Serine/threonine-protein kinase TOUSLED (Arabidopsis thaliana (Mouse-ear cress)), Q39238 (parent)
chain: B1 chain
partner: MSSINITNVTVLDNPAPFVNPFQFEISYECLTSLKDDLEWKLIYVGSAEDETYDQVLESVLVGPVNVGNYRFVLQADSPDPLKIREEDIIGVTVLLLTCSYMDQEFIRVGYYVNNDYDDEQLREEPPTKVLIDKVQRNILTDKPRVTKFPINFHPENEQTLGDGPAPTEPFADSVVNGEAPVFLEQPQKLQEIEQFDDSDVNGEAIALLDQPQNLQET

Variants of: B1
Conditions: with tki1_arath TKI1, Q8LJT8

Variant | effect of a mutation on the interaction
K438E | disrupting interaction

Variants of: B2
Conditions: with asf1b_arath ASF1B

Variant | effect of a mutation on the interaction
K438E | disrupting interaction
